Measurements reported in patent US20140120109A1 (Regeneron, published 2014).
Where a chain is given by its changes, count along the chain named. Numbers in names are those of the source.

T1: Fhm, hTL1A(Q167R), soluble, E. coli-expressed, residues 72-251 of SEQ ID NO:246 (human, UniProt O95150 72-251)
T1 construct: with or without N-terminal Met
T1 chain: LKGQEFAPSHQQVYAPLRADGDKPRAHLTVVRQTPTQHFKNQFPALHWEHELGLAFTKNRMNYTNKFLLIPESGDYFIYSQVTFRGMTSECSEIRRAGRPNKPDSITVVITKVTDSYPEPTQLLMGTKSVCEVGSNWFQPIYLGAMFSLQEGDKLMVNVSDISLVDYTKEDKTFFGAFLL

T2: human DR3, full-length, expressed on HEK293 NFkB-luciferase reporter cells (human, UniProt Q93038 25-417)
T2 sequence: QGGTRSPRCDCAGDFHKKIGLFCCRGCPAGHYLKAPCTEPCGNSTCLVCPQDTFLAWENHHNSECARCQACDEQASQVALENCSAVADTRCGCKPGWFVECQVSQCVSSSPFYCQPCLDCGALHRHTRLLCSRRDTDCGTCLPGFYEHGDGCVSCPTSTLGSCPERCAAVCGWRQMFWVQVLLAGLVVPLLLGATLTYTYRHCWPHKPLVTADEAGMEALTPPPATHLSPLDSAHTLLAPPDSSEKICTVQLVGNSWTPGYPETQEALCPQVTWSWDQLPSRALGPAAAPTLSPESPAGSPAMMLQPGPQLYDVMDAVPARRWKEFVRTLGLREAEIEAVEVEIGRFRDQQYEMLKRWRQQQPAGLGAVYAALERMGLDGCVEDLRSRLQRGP

B1: H2M1817N (antibody, V domains shown)
VH: QVQLQQWGAGLLKPSETLSLTCAVSGGSFSDYFWTWIRQPPGKGLEWIGEISHSGRTNYNPSLKSRVTISVDTSMSQFSLKMTSVTAADSAVYYCARDYPNWVFDYWGQGTLVTVSS
VL: EIELTQSPGTLSLSPGEGATLSCRASQSVFNSYLAWYQQKPGQAPRLLIYGASRRATGIPDRFSGSGSGTDFTLTISRLEPGDFAVYFCQQYGNSPLTFGGGTKVEIK
notes: chimeric hybridoma antibody: human variable regions, mouse constant regions (mouse Fc)
B2: mouse TL1A, soluble, CHO-expressed, residues 76-252 of SEQ ID NO:250 with N-terminal His6-tag (ligand)
chain: HHHHHHITEERSEPSPQQVYSPPRGKPRAHLTIKKQTPAPHLKNQLSALHWEHDLGMAFTKNGMKYINKSLVIPESGDYFIYSQITFRGTTSVCGDISRGRRPNKPDSITMVITKVADSYPEPARLLTGSKSVCEISNNWFQSLYLGATFSLEEGDRLMVNVSDISLVDYTKEDKTFFGAFLL
B3: mouse TL1A, soluble, E. coli-expressed, residues 76-252 of SEQ ID NO:250 (ligand)
chain: ITEERSEPSPQQVYSPPRGKPRAHLTIKKQTPAPHLKNQLSALHWEHDLGMAFTKNGMKYINKSLVIPESGDYFIYSQITFRGTTSVCGDISRGRRPNKPDSITMVITKVADSYPEPARLLTGSKSVCEISNNWFQSLYLGATFSLEEGDRLMVNVSDISLVDYTKEDKTFFGAFLL
B4: human TL1A, soluble, CHO-expressed, residues 72-251 of SEQ ID NO:244 with N-terminal His6-tag (ligand)
chain: HHHHHHLKGQEFAPSHQQVYAPLRADGDKPRAHLTVVRQTPTQHFKNQFPALHWEHELGLAFTKNRMNYTNKFLLIPESGDYFIYSQVTFRGMTSECSEIRQAGRPNKPDSITVVITKVTDSYPEPTQLLMGTKSVCEVGSNWFQPIYLGAMFSLQEGDKLMVNVSDISLVDYTKEDKTFFGAFLL
B5: Fhm, hTL1A(Q167R), soluble, CHO-expressed, residues 72-251 of SEQ ID NO:246 (ligand)
chain: B4 chain with Q102R
B6: cynomolgus monkey TL1A, soluble, CHO-expressed, residues 72-251 of SEQ ID NO:248 with N-terminal His6-tag (ligand)
chain: B4 chain with F45L, I84V
B7: human TL1A, soluble, E. coli-expressed, residues 72-251 of SEQ ID NO:244 (ligand)
chain: T1 chain with R96Q
B8: cynomolgus monkey TL1A, soluble, E. coli-expressed, residues 72-251 of SEQ ID NO:248 (ligand)
chain: T1 chain with F39L, I78V, R96Q
B9: H2M1704N (antibody, V domains shown)
VH: EVQLVESGGGLVQPGGSLRLSCAVSGFTFSSYWMSWVRQAPGKGLEWVANIKEDGSEKNYVDSVKGRFTLSSDNAKNSLYLQMNSLRAEDTAVYYCAREDYDSYYKYGMDVWGQGTAVIVSS
VL: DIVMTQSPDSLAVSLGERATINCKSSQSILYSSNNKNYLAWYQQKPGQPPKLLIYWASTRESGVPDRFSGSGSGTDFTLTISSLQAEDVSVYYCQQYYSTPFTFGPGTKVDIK
notes: as for B1
B10: rat TL1A, soluble, CHO-expressed, residues 76-252 of SEQ ID NO:258 with N-terminal His6-tag (ligand)
chain: HHHHHHVTEERSAPSAQPVYTPSRDKPKAHLTIMRQTPVPHLKNELAALHWENNLGMAFTKNRMNYTNKFLVIPESGDYFIYSQITFRGTTSECGDISRVRRPKKPDSITVVITKVADSYPEPAHLLTGTKSVCEISSNWFQPIYLGAMFSLEEGDRLMVNVSDISLVDYTKEDKTFFGAFLI

Experiments:
[1] = target: T1, Fhm, hTL1A(Q167R), soluble, E. …; experiment: SPR 25C, mAb captured
Protocol: (§1) Measurements were conducted on a T100 BIACORE™ instrument. […] Kinetic association (kₐ) and dissociation (kd) rate constants were determined by fitting the data to a 1:1 binding model using BIAevaluation 4.1 curve fitting software (BIAcore Life Sciences). Molar concentrations of TL1A/Fhm used in the data fitting assumed a monomeric state for TL1A in solution. Binding dissociation equilibrium constants (KD) and dissociative half-lives (t_{1/2}) were calculated from the kinetic rate constants as: KD (M)=kd/kₐ; and t_{1/2} (min)=[In2/(60*kd)].

[2] = target: B8; experiment: SPR 25C, mAb captured
Protocol: as §1

[3] = target: B8; experiment: SPR 37C, mAb captured
Protocol: as §1

[4] = target: B3; experiment: SPR 25C, steady state
Protocol: as §1, with “Binding dissociation equilibrium constants (KD) and dissociative half-lives (t_{1/2}) were calculated from the kinetic rate constants as: KD (M)=kd/kₐ; and t_{1/2} (min)=[In2/(60*kd)].” left out

[5] = target: B5; experiment: ELISA, blocks FHM (10 pM) binding hDcR3-Fc
Protocol: (§2) The ability of antibodies to block human TL1A binding to its cognate receptors, the DR3 and DcR3 receptors, was measured using a competition sandwich ELISA. In addition, blocking of a human TL1A variant FHM (human TL1A Q167R) and the cynomolgus monkey (Macaca fascicularis) TL1A (MfTL1A) protein binding to the human DR3 or DcR3 receptors was measured in the same manner. Constant amounts of biotinylated human TL1A or FHM (both expressed with a 6-His tag in CHO cells) or biotinylated MfTL1A (expressed in CHO cells) were separately titrated with varying amounts of antibodies. The antibody-protein complexes were incubated in solution (1 hr, 25° C.) and then transferred to microtiter plates coated with human DR3 (hDR3) or human DcR3 (hDcR3) expressed as human IgG1 Fc fusion proteins. After one hour at 25° C. the wells were washed, and bound human or monkey TL1A was detected with streptavidin conjugated with horseradish peroxidase (HRP). Wells were developed with a TMB solution to produce a colorimetric reaction and quenched with aqueous sulfuric acid before reading absorbance at 450 nm on a Perkin-Elmer Victor X5 plate reader. A sigmoidal dose-response curve was fit to the data using the Prism™ data analysis package. […] Both fully human anti-hTL1A mAbs and comparator antibodies, i.e., control mAb1 (an anti-hTL1A antibody with heavy and light chain variable domains having the amino acid sequences corresponding to SEQ ID NOS:21 and 27, respectively, of US 2009/0280116) and control mAb3 (an anti-hTL1A antibody with heavy and light chain variable domains having the amino acid sequences corresponding to SEQ ID NOS:57 and 48, respectively, of US 2009/0280116), were included in the study. NB: No binding under the conditions tested; NT: Not tested. Concentrations of biotinylated soluble ligands: (1) 150 pM; (2) 500 pM; (3) 10 pM; and (4) 50 pM.

[6] = target: B5; experiment: ELISA, blocks FHM (150 pM) binding hDR3-Fc
Protocol: as §2

[7] = target: B4; experiment: ELISA, blocks hTL1A (10 pM) binding hDcR3-Fc
Protocol: as §2

[8] = target: B4; experiment: ELISA, blocks hTL1A (150 pM) binding hDR3-Fc
Protocol: as §2

[9] = target: B6; experiment: ELISA, blocks MfTL1A (50 pM) binding hDcR3-Fc
Protocol: as §2

[10] = target: B6; experiment: ELISA, blocks MfTL1A (500 pM) binding hDR3-Fc
Protocol: as §2

[11] = target: T2, human DR3, full-length, expressed on …; experiment: cell-based or functional assay

Binder: B1
Kd [1]: 0.451 nM
t1/2 [1]: 57 min
Kd [2]: 1.25 nM
t1/2 [2]: 37 min
Kd [3]: 1 nM
t1/2 [3]: 30 min
binding result [4]: no binding (tested: up to 100 nM)
IC50 [5]: 0.666 nM
IC50 [6]: 0.249 nM
IC50 [7]: 0.89 nM
IC50 [8]: 0.154 nM
IC50 [9]: 0.776 nM
IC50 [10]: 0.137 nM

Binder: B2
EC50, NFkB-luciferase reporter [11]: 0.08 nM

Binder: B3
EC50, NFkB-luciferase reporter [11]: 0.01 nM

Binder: B4
EC50, NFkB-luciferase reporter [11]: 0.63 nM

Binder: B5
EC50, NFkB-luciferase reporter [11]: 0.32 nM

Binder: B6
EC50, NFkB-luciferase reporter [11]: 0.86 nM

Binder: B7
EC50, NFkB-luciferase reporter [11]: 0.12 nM

Binder: B8
EC50, NFkB-luciferase reporter [11]: 2.02 nM

Binder: B9
Kd [1]: 0.282 nM
t1/2 [1]: 52 min
Kd [2]: 0.285 nM
t1/2 [2]: 57 min
Kd [3]: 0.751 nM
t1/2 [3]: 16 min
Kd [4]: 127 nM

Binder: B10
EC50, NFkB-luciferase reporter [11]: 0.06 nM
